Data on one molecule can be found in article PMC12615485, “New dengue virus inhibitors targeting NS3-NS5 interaction identified by in silico screening” (Frontiers in Microbiology, 2025).

The test concerns the target 6His-NS5 RdRp(270-900) of DENV-2 NGC strain (DENV-2 NGC strain). The experiment in a line: ELISA. Conditions: both partners purified.

B1: NS3(86-100) peptide of DENV-2 (peptide)
chain: EGEWKEGEEVQVLAL
As usually defined, the IC50 is the concentration at which inhibition is half-maximal. A lower IC50 goes with greater potency. Turning to B1, the IC50 is more than 200 µM.
